Assay results as given in US20140161798A1 (Merck Sharp & Dohme, published 2014).
Residue numbers refer to the chain shown, from its start. Values belong to the molecule of their own block, whether it stands above or below them.

Assays:
[1] = target: Purified PCSK9 carrying a C-terminal FLAG tag (UniProt Q8NBP7); test: AlphaScreen PCSK9-FLAG/His-LDLR; non-specific control; log[antibody] ug/ml -1.9909
[2] = target: Purified PCSK9 carrying a C-terminal FLAG tag (UniProt Q8NBP7); test: AlphaScreen PCSK9-FLAG/His-LDLR; non-specific control; log[antibody] ug/ml -1.03665
[3] = target: Purified PCSK9 carrying a C-terminal FLAG tag (UniProt Q8NBP7); test: AlphaScreen PCSK9-FLAG/His-LDLR; non-specific control; log[antibody] ug/ml 1.348954
[4] = target: Purified PCSK9 carrying a C-terminal FLAG tag (UniProt Q8NBP7); test: AlphaScreen PCSK9-FLAG/His-LDLR; non-specific control; log[antibody] ug/ml 1.826075
[5] = target: Purified PCSK9 carrying a C-terminal FLAG tag (UniProt Q8NBP7); test: AlphaScreen PCSK9-FLAG/His-LDLR; non-specific control; log[antibody] ug/ml -1.03665; remark: listed apart in the source
[6] = target: Purified PCSK9 carrying a C-terminal FLAG tag (UniProt Q8NBP7); test: AlphaScreen PCSK9-FLAG/His-LDLR; non-specific control; log[antibody] ug/ml 0.871832
[7] = target: Purified PCSK9 carrying a C-terminal FLAG tag (UniProt Q8NBP7); test: AlphaScreen PCSK9-FLAG/His-LDLR; non-specific control; log[antibody] ug/ml -2.46802
[8] = target: Purified PCSK9 carrying a C-terminal FLAG tag (UniProt Q8NBP7); test: AlphaScreen PCSK9-FLAG/His-LDLR; non-specific control; log[antibody] ug/ml -0.55953
[9] = target: Purified PCSK9 carrying a C-terminal FLAG tag (UniProt Q8NBP7); test: AlphaScreen PCSK9-FLAG/His-LDLR; non-specific control; log[antibody] ug/ml -0.08241
[10] = target: Purified PCSK9 carrying a C-terminal FLAG tag (UniProt Q8NBP7); test: AlphaScreen PCSK9-FLAG/His-LDLR; non-specific control; log[antibody] ug/ml 1.826075; remark: listed apart in the source
[11] = target: Purified PCSK9 carrying a C-terminal FLAG tag (UniProt Q8NBP7); test: AlphaScreen PCSK9-FLAG/His-LDLR; non-specific control; log[antibody] ug/ml -1.9909; remark: listed apart in the source
[12] = target: Purified PCSK9 carrying a C-terminal FLAG tag (UniProt Q8NBP7); test: AlphaScreen PCSK9-FLAG/His-LDLR; non-specific control; log[antibody] ug/ml 0.871832; remark: listed apart in the source
[13] = target: Purified PCSK9 carrying a C-terminal FLAG tag (UniProt Q8NBP7); test: AlphaScreen PCSK9-FLAG/His-LDLR; non-specific control; log[antibody] ug/ml -1.51377
[14] = target: Purified PCSK9 carrying a C-terminal FLAG tag (UniProt Q8NBP7); test: as above; remark: listed apart in the source
[15] = target: Purified PCSK9 carrying a C-terminal FLAG tag (UniProt Q8NBP7); test: AlphaScreen PCSK9-FLAG/His-LDLR; non-specific control; log[antibody] ug/ml 0.394711
[16] = target: Purified PCSK9 carrying a C-terminal FLAG tag (UniProt Q8NBP7); test: as above; remark: listed apart in the source
[17] = target: Purified PCSK9 carrying a C-terminal FLAG tag (UniProt Q8NBP7); test: AlphaScreen PCSK9-FLAG/His-LDLR; non-specific control; log[antibody] ug/ml -0.55953; remark: listed apart in the source
[18] = target: Purified PCSK9 carrying a C-terminal FLAG tag (UniProt Q8NBP7); test: AlphaScreen PCSK9-FLAG/His-LDLR; non-specific control; log[antibody] ug/ml -2.46802; remark: listed apart in the source
[19] = target: Purified PCSK9 carrying a C-terminal FLAG tag (UniProt Q8NBP7); test: AlphaScreen PCSK9-FLAG/His-LDLR; non-specific control; log[antibody] ug/ml -0.08241; remark: listed apart in the source
[20] = target: Purified PCSK9 carrying a C-terminal FLAG tag (UniProt Q8NBP7); test: AlphaScreen PCSK9-FLAG/His-LDLR; non-specific control; log[antibody] ug/ml -2.94514
[21] = target: Purified PCSK9 carrying a C-terminal FLAG tag (UniProt Q8NBP7); test: AlphaScreen PCSK9-FLAG/His-LDLR; non-specific control; log[antibody] ug/ml 1.348954; remark: listed apart in the source
[22] = target: mouse liver LDL receptor (C57BL/6j mice) (mouse) (UniProt P35951); test: cell-based or functional assay
[23] = target: T1, Purified PCSK9 carrying a C-terminal FLAG tag (UniProt Q8NBP7 31-692); test: AlphaScreen, inhibition of PCSK9-Flag/His-tagged LDL receptor interaction
T1 construct: also called PCSK9-FLAG; PCSK9-Flag; not shown: C-terminal FLAG tag
Experimental: (§1) This technique required that “donor” and “acceptor” beads be brought into proximity via protein—protein interaction, resulting in increased luminescence (Ullman et al., Proc. Nat. Acad. Sci. (1994) 91:5426-5430). […] About 2.5 μl of biotinylated anti-Flag-M2 antibody (1.8 μg/ml) was added and the mixture incubated for 1 hour. Afterward 5 μl of streptavidin donor bead and nickel chelate acceptor bead (1:1 mixture) was added and the assay incubated overnight. AlphaScreen signal (counts per second) was analyzed using an EnVision microplate reader (Perkin-Elmer). All data points were determined in triplicate. Assays were carried out at 23° C. in buffer containing 25 mM HEPES, 0.1 M NaCl, pH 7.4, 0.1% BSA. The inhibition assays were determined similarly with slight adjustments to assay volumes and protein concentrations.

[24] = target: T1, Purified PCSK9 carrying a C-terminal …; test: AlphaScreen, inhibition of PCSK9-Flag/His-tagged LDL receptor interaction, relative to no antibody
Experimental: as §1

Sequence of Purified PCSK9 carrying a C-terminal FLAG tag (UniProt Q8NBP7) (Q8NBP7 31-692 limits assumed): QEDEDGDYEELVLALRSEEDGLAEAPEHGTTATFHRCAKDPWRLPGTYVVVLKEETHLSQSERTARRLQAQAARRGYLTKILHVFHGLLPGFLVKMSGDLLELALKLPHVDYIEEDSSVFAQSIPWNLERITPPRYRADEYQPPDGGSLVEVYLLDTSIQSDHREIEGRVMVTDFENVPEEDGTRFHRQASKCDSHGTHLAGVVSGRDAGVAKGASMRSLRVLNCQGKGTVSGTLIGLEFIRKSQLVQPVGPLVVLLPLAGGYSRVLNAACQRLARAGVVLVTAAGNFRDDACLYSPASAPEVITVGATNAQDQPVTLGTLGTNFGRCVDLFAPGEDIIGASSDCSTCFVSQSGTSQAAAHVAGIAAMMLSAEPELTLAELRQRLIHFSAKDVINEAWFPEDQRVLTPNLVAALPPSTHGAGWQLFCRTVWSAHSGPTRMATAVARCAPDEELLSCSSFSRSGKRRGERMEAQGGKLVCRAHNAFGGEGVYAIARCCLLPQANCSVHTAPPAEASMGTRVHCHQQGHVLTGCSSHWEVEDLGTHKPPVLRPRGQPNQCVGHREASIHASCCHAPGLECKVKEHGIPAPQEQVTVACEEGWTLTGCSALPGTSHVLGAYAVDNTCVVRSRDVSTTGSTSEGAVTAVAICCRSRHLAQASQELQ
T1 sequence (Q8NBP7 31-692 limits assumed): as above
Sequence of mouse liver LDL receptor (C57BL/6j mice) (mouse) (P35951 22-862): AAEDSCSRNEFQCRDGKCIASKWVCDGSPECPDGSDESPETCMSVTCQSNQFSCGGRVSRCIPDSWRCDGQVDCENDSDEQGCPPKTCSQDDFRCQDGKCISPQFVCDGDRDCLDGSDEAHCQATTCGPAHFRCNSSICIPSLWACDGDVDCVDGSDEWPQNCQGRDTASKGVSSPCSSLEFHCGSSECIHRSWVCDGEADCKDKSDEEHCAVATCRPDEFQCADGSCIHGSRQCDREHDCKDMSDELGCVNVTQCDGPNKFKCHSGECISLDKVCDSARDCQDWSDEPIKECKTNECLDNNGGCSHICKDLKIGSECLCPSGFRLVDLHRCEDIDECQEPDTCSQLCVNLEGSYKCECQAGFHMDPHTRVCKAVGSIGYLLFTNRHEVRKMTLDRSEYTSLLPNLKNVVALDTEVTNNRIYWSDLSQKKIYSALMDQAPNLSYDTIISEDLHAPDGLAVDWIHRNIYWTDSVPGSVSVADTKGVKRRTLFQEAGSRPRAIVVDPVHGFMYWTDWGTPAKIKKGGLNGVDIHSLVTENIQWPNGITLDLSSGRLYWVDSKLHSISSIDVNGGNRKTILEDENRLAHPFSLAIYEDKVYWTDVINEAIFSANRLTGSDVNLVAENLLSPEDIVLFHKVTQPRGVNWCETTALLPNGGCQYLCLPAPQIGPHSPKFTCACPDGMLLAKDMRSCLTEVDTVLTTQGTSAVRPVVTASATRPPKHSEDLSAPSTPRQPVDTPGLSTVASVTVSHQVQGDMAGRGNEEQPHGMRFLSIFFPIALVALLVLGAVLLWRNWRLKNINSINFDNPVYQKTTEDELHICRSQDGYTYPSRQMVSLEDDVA

B1: 75B9 anti-PCSK9 antibody (IgG2a) (antibody, V domains shown)
VH: EVQLQQSGADLVKPGASVKLSCTASGFNIKDTYIHWVKQRPEQGLEWIGRIDPANGHTEYDPKFQGRATLTTDTSSNTAYLQLFSLTSEDSAVYFCARSYYGSIFAYWGQGTLVTVSA
VL: QIVLTQSPAIMSASPGEKVTISCSASSSVSYLFWYQQKPGSSPKPWIFRTSYLASGVPARFSGSGSGTSFSLTISSMEAEDAATYYCHQYHTYPPTFGGGTKLEIKR
IC50 [23]: 0.5 nM
% inhibition at 450 nM of antibody [24]: 100%

B2: 11B5 anti-PCSK9 antibody (IgG2a) (antibody, V domains shown)
VH: EVQLQQSGAELVKPGASVTLSCTASGFNIKDTYMHWVNQRPEQGLVWIGRIDPANGHTEYDPKFQDKATITTDTSSNTAYLHLSSLTSGDTAVYYCARSYFGSIFAYWGQGTLVTVSA
VL: B1 VL with F33Y, T50S, Y52H, L53R, F70Y, H91Q, T92S
IC50 [23]: 0.4 nM
% inhibition at 450 nM of antibody [24]: 100%

B3: 29C10 anti-PCSK9 antibody (IgG2a) (antibody, V domains shown)
VH: EVLLQQSVAELVRPGASVRLSCTASGFNIKDTYIHWVRQRPEQGLEWFGWIDPANGYTKYAPNFQGKATLTTDTSSNTAYLHLSSLTSEDSAIYYCARGYYRYYSLDYWGQGTSVTVSS
VL: DIQMTQTTSSLSASLGDRVTISCRASQDISNYLNWYQQKPDGTVKLLIYYSSRLHSGVPSRFSGRGSGTDYSLTISTLEQEDIATYFCQQGKTLPLTFGAGTKLELKR
IC50 [23]: 13 nM
% inhibition at 450 nM of antibody [24]: 71%

B4: 77D10 anti-PCSK9 antibody (IgG2b) (antibody, V domains shown)
VH: EVQLQQSGAELVRSGASVKLSCTTSGFNIKDYYIHWVKQRPEQGLEWIGWIDPENGDTEYAPKFQGKATMTADTSSNTAYLQLSSLTSADTAVYYCNAYYRYDDGTWFPYWGQGTLVTVSA
VL: DIQLTQSPASLSASVGETVTITCRASGNIHSYLAWYQQKQGKSPQFLVDNAKTLPDGVPSRFSVSGSGTQYSLKINSLQPEDFGTYYCQHFWNTPWTFGGGTKLEIKR
IC50 [23]: 38 nM
% inhibition at 450 nM of antibody [24]: 62%

Next, values leading:

AlphaScreen mean counts [1]: 80700 counts
AlphaScreen mean counts [2]: 127000 counts
AlphaScreen mean counts [3]: 135000 counts
AlphaScreen mean counts [4]: 114000 counts
AlphaScreen mean counts [5]: 84400 counts
AlphaScreen mean counts [6]: 140000 counts
AlphaScreen mean counts [7]: 78200 counts
AlphaScreen mean counts [8]: 88100 counts
AlphaScreen mean counts [9]: 140000 counts
AlphaScreen mean counts [10]: 61900 counts
AlphaScreen mean counts [11]: 135000 counts
AlphaScreen mean counts [12]: 79600 counts
AlphaScreen mean counts [13]: 83100 counts
AlphaScreen mean counts [14]: 134000 counts
AlphaScreen mean counts [15]: 136000 counts
AlphaScreen mean counts [16]: 79600 counts
AlphaScreen mean counts [17]: 139000 counts
AlphaScreen mean counts [18]: 140000 counts
AlphaScreen mean counts [19]: 82800 counts
AlphaScreen mean counts [20]: 82100 counts
AlphaScreen mean counts [21]: 74400 counts
Molecule: non-specific IgG control (antibody)

Mean liver LDLR/GAPDH, mice given Saline and PCSK9 (western blot, lightest exposure) [22]: 0.081 AU
Molecule: human PCSK9 Protein (injected intravenously into mice) (from UniProt Q8NBP7 31-692)

% Change of mean liver LDLR/GAPDH against saline only, mice given Saline and PCSK9 (darker exposure) [22]: -78.8%
% Change of mean liver LDLR/GAPDH against saline only, mice given Saline and PCSK9 (lightest exposure) [22]: -82%
Mean liver LDLR/GAPDH, mice given Saline and PCSK9 (western blot, darker exposure of LDLR panel) [22]: 0.123 AU
Molecule: human PCSK9 Protein (injected intravenously into mice) (from UniProt Q8NBP7 31-692) (enzyme)
